Source: paper PMC6174329, “Functional Characterization of Arabidopsis PHL4 in Plant Response to Phosphate Starvation”

T1: MBP-PHL4-His (Arabidopsis thaliana? (Columbia-0?), UniProt Q8GXC2 1-397)
T1 sequence: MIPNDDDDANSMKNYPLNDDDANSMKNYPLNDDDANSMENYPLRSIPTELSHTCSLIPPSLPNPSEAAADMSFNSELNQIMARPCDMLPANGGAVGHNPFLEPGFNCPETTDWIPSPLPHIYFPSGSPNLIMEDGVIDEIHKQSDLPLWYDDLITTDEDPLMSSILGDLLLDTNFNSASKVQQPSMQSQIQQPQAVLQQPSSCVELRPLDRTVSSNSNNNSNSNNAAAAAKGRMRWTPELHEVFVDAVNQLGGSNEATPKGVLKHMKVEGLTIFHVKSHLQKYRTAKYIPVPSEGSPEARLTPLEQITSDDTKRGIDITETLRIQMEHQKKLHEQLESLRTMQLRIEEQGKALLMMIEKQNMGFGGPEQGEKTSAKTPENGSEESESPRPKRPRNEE


What was measured:
MBP-PHL4-His [1] = target: T1, MBP-PHL4-His; test: EMSA; 4 ug protein, 10 fmol probe; EMSA as described by Sun et al. (2016); buffer, salt, pH and temperature not given; 4 ug MBP-PHL4, 10 fmol biotin probe; settings: protein: recombinant; tags: N-terminal MBP; C-terminal 6xHis; chain copies: 2; label: biotin (on F strand); blunt
MBP-PHL4-His [2] = target: T1, MBP-PHL4-His; test: competition; unlabeled probe at 200:1, 800:1 and 1200:1 molar excess over labeled probe; EMSA as described by Sun et al. (2016); buffer, salt, pH and temperature not given; 4 ug MBP-PHL4, 10 fmol biotin probe; settings: protein: recombinant; tags: N-terminal MBP; C-terminal 6xHis; chain copies: 2; blunt

Binder | binding result (MBP-PHL4-His [1]) | binding result (MBP-PHL4-His [2])
2xP1BS probe (dsDNA) DNA 1: ATTAACGAATATTCCGTACAATTAACGAATATTCCGTACA DNA 2: TGTACGGAATATTCGTTAATTGTACGGAATATTCGTTAAT | binds | 
2xP1BS unlabeled competitor (dsDNA) DNA 1: ATTAACGAATATTCCGTACAATTAACGAATATTCCGTACA DNA 2: TGTACGGAATATTCGTTAATTGTACGGAATATTCGTTAAT |  | binds
